One may read the Kd as the concentration at which binding is half-saturated. Usually koff stands for the first-order rate constant of dissociation. By kon is commonly meant a measure of how fast the partners come together.

To fix the notation:
B1: Recombinant soluble EPCR with a 6x His tag (EPCRH) (receptor, human, UniProt Q9UNN8 18-210, looked up)
chain: SQDASDGLQRLHMLQISYFRDPYHVWYQGNASLGGHLTHVLEGPDTNTTIIQLQPLQEPESWARTQSGLQSYLLQFHGLVRLVHQERTLAFPLTIRCFLGCELPPEGSRAHVFFEVAVNGSSFVSFRPERALWQADTQVTSGVVTFTLQQLNAYNRTRYELREFLEDTCVQYVQKHISAENTKGSQTSRSYTS
notes: Endothelial protein C receptor, human, extracellular region residues S18-S210, amplified from a human lung endothelium cDNA library; glycosylated (migrates at about 40 kDa); also called recombinant EPCR; not shown: His6, C-terminal, kept

Assay [1] concerns the target T1, VAR19-NTS-DBLγ6 (N-terminal region of IT4-VAR19 comprising the full-length DC8 cassette) (Plasmodium falciparum (IT4 strain), UniProt A3R6S3 2-1713).
T1 construct: PfEMP1 IT4-VAR19, Plasmodium falciparum IT4 (FCR3) strain, residues G2-P1713 (NTS, DBLα2, CIDRα1.1, DBLβ12, DBLγ6); synthetic codon-optimised gene; also called NTS-DBLɣ6; IT4-VAR19-DC8 cassette; not shown: His6, C-terminal, kept
Briefly: SPR; EPCRH immobilised on a CM5 chip by amine coupling (1324 RU); IT4-VAR19 proteins injected 180 s, dissociation 400 s; HBS-EP buffer, 25 °C; Biacore X100; global 1:1 Langmuir fit. Conditions: both partners purified. (In SPR one partner is held on a chip, and binding of the other changes the refractive index at the surface.)

Assay [2] deals with B1. Described as above. Particulars: both partners purified.

As to B1, in assay [1], the Kd was determined as 52 nM, the koff came out at 0.0011 s⁻¹ and the kon came to 22000 M⁻¹ s⁻¹.

B2: VAR19-CIDRα1.1 (domain or fragment)
chain: SVECFHSWAKNLLIDTIRWEHQLKNCINNTNVTDCTSKCIKNCECYEKWIKEKEKEWPQVKGVLKKKDETSHNYYDKLKDVFDRFLFEVKGALDQDEKGKWDQFTKDLEKKFGPSVESAGTANSQDAIELLLDHLNDNATTCKDNNSLAVENCPKTKINP
notes: PfEMP1 IT4-VAR19, CIDRα1.1 domain, residues S580-P739, amplified from IT4 genomic DNA
B2: in assay [2], the Kd stood at 340 nM, the off-rate constant (koff) is 0.012 s⁻¹ and the on-rate (kon) was 35000 M⁻¹ s⁻¹.

For the origin of these results see PMC4672576, “Beninese children with cerebral malaria do not develop humoral immunity against the IT4-VAR19-DC8 PfEMP1 variant linked to EPCR and brain endothelial binding” (Malaria Journal, 2015).
